Legend:
Test in all cases: EMSA
[1] = tested on: Mouse IgG2a (Mus musculus); conditions: T = 5-ethynyldeoxyuridine clicked with sulfo-HSAB (NHS ester), covalent binding fraction
[2] = tested on: Mouse IgG2b (Mus musculus); conditions: T = 5-ethynyldeoxyuridine clicked with sulfo-HSAB (NHS ester), covalent binding fraction
[3] = tested on: Mouse IgG1 monoclonal antibody (including anti-streptavidin) (Mus musculus); conditions: T = 5-ethynyldeoxyuridine clicked with sulfo-HSAB (NHS ester); for EC50: half-maximal covalent binding (estimate), Kd not determinable; for binding signal (% bound fraction): maximum covalent binding fraction
[4] = core of consensus SEQ:22, flanks not given
[5] = core of consensus SEQ:23, flanks not given

Sequence	binding signal (% bound fraction) [1, 4]	binding signal (% bound fraction) [2, 4]	EC50 ([3]; core of consensus SEQ:22, flanks not given, Cu(II) dependent) [nM]	binding signal (% bound fraction) [3, 4]	binding signal (% bound fraction) [1, 5]	binding signal (% bound fraction) [2, 5]	EC50 [3, 5] [nM]	binding signal (% bound fraction) [3, 5]
AGCGCGGAACCGTGCCTGGC [Fc clone 1]	40	10	< 10	40	–	–	–	–
TAACGCARTAAGCGAG [Fc clone 2]	–	–	–	–	20	2	< 10	20

From patent publication US20210395742
